# Measurements: article PMC4084637
# Key:
# [1] = target: antibody PGT128 (human); assay: SPR
# [2] = target: antibody PGT135 (human); assay: SPR
# Chain of antibody PGT135 (human) (heavy, as listed by the source, chain 1 of 2): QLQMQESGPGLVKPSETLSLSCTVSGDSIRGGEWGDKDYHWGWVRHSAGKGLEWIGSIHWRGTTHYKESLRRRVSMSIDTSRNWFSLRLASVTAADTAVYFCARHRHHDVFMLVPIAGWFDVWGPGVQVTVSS
# Chain of antibody PGT135 (human) (light, as listed by the source, chain 2 of 2): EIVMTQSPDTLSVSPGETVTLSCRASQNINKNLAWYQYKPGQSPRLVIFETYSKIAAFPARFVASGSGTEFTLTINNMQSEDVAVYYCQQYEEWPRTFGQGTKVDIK
# Chain of antibody PGT128 (human) (heavy, as listed by the source, chain 1 of 2): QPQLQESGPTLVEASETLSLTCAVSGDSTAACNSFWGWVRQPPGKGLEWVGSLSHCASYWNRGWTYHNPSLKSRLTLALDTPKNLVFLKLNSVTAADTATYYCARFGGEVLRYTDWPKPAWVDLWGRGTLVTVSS
# Chain of antibody PGT128 (human) (light, as listed by the source, chain 2 of 2): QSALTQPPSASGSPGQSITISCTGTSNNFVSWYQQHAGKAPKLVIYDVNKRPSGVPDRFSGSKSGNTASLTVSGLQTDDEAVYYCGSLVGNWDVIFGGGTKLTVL
substance,measurement,setting,value
YU2 gp120 (from UniProt P35961 32-498) (natural protein),Kd,[1],11 nM
same,Kd,[2],18 nM
